The assay concerns the target T1, NanoLuc-cTAGE5-CC2 (predicted binding region of cTAGE5 coiled-coil 2 with a Nanoluciferase tag at the …).
T1 construct: The fusion construct was expressed inside live HEK293T cells; also called C5-CC2; c5-CC2
T1 chain: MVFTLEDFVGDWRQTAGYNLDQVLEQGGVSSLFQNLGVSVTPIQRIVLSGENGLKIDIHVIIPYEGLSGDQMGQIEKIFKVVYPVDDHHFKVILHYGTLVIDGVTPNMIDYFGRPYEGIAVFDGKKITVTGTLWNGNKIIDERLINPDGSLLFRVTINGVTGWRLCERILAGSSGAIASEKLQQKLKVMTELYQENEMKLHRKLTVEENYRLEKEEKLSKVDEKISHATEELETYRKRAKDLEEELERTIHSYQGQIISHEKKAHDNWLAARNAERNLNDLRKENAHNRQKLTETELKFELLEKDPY
As to the kind of experiment: NanoBRET in live HEK293T cells (HaloTag 618 acceptor, NanoLuc donor). For orientation: BRET reads energy transfer from a luciferase to a nearby fluorophore.

B1: Halo-T1-CC2 (portion of the coiled-coil region CC2 of TANGO1 with an N-terminal fusion of HaloTag) (other)
chain: MAEIGTGFPFDPHYVEVLGERMHYVDVGPRDGTPVLFLHGNPTSSYVWRNIIPHVAPTHRCIAPDLIGMGKSDKPDLGYFFDDHVRFMDAFIEALGLEEVVLVIHDWGSALGFHWAKRNPERVKGIAFMEFIRPIPTWDEWPEFARETFQAFRTTDVGRKLIIDQNVFIEGTLPMGVVRPLTEVEMDHYREPFLNPVDREPLWRFPNELPIAGEPANIVALVEEYMDWLHQSPVPKLLFWGTPGVLIPPAEAARLAKSLPNCKAVDIGPGLNLLQEDNPDLIGSEIARWLSTLEISGEPTTEDLYFQSDNAIASELRQKVEILNELYQQKEMALQKKLSQEEYERQEREHRLSAADEKAVSAAEEVKTYKRRIEEMEDELQKTERSFKNQIATHEKKAHENWLKARAAERAIAEEKREAANLRHKLLELTQKMAMLQEEP
modifications: HaloTag labeled with the HaloTag 618 fluorescent ligand
notes: The fusion construct was expressed inside live HEK293T cells; also called Halo-TANGO1-CC2; TANGO1-CC2
Consider B1, for which the binding result is reported as “binds”.
